Reference: patent US20080293626A1 (Johns Hopkins, published 2008)

Target: PEDF receptor (unidentified cell surface receptor on bovine retinal capillary endothelial cells)
Assay: cell-based or functional assay

VLLSPLSVATALSALSLGAEQRTESIIHRALYYDLISSPDIHGT [PEDF 44 AA peptide (residues 78-121 of human PEDF)]
inhibition of VEGF stimulated endothelial cell migration (BRCEC microchemotaxis chamber), IC50: 3 nM
